In patent US20140087995A1 (published 2014) one finds IC50 data, which are given here for 6 molecules.

In the experiment the target is T1, human calcitonin receptor (human, UniProt P30988 25-474).
T1 construct: whole, on cells; also called hCTR; hCT
T1 sequence (looked up): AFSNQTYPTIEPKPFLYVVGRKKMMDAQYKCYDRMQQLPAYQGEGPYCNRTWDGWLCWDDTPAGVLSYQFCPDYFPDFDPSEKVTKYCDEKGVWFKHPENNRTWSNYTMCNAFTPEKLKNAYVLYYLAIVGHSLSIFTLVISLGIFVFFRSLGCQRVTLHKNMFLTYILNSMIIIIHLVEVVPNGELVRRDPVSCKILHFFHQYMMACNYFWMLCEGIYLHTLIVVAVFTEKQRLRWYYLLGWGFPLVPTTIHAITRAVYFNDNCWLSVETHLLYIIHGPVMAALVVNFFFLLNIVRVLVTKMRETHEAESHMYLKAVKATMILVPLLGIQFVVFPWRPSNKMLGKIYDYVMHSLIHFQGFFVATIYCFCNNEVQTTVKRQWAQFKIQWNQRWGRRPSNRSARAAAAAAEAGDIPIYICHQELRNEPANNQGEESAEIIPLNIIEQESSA
In words: SPA competition with 125I-calcitonin, membranes of BHK hCTR cells (Assay VII). The protocol:
Membranes were prepared in the following way; the cells were rinsed with PBS and incubated with Versene for approximately 5 min before harvesting. The cells were flushed with PBS and the cell-suspension was centrifuged for 5 min at 1000 rpm. Cells were homogenized (Ultrathurrax) in a buffer containing 20 mM Na-HEPES and 10 mM EDTA (pH 7.4) and centrifuged at 20.000 rpm for 15 min. The resulting pellet was resuspended, homogenized and centrifuged (20.000 rpm, 15 min) in a buffer containing 20 mM Na-HEPES and 0.1 mM EDTA (pH 7.4, buffer 2). The resulting pellet was resuspended in buffer 2 and protein concentration was measured (BCA protein Assay, Pierce). The homogenate was kept cold during the whole procedure. The membranes were kept at −80° C. until use. Assay was performed in a 384 well Optiplate (PerkinElmer) in a total volume of 40 ul. Membranes were mixed with SPA beads. Final concentration of membranes 35 ng/μL final and Final concentration of SPA beads was 0.05 mg/well. Test-compounds were dissolved in DMSO and further diluted in assay buffer (50 mM Hepes, pH 7.4, 1 mM CaCl2, 5 mM MgCl₂, 0.1% OA and 0.02% Tween20). […] The final mixture was incubated for 120 min with shaking at 400 rpm at 25° C. prior to centrifugation (1500 rpm, 10 min). Samples were analyzed on TopCounter™ (Packard). The […] was calculated using (one site binding competition analysis) GraphPad Prism5 as a measure of receptor affinity.

Numbered stars: 1 amine (or outer) side, 2 acyl side, 3 side chain; on linkers, the order of the positions; unused ones are H or OH. Bridge positions count the residues as written; N and C are the ends. Side chains are listed from the residue outwards. Ends that are not written are not given here. * marks the point of attachment. C20 diacid = O=C(O)CCCCCCCCCCCCCCCCCCC(=O)*; γGlu = O=C(O)[C@H](CCC(=O)[*:2])N[*:1]; AEEA = NCCOCCOCC(=O)O

B1: N^α1-[(4S)-4-carboxy-4-(19-carboxynonadecanoylamino)butanoyl]-[His14,Arg17,Pro21,Pro27,Glu35]-h-amylin (peptide)
peptide: {C20 diacid-γGlu}-KCNTATCATQRLAHFLRHSSPNFGAIPSSTNVGSETY-NH2
modifications: disulfide 2-7
SMILES: CC[C@H](C)[C@H](NC(=O)[C@H](C)NC(=O)CNC(=O)[C@H](Cc1ccccc1)NC(=O)[C@H](CC(N)=O)NC(=O)[C@@H]1CCCN1C(=O)[C@H](CO)NC(=O)[C@H](CO)NC(=O)[C@H](Cc1c[nH]cn1)NC(=O)[C@H](CCCNC(=N)N)NC(=O)[C@H](CC(C)C)NC(=O)[C@H](Cc1ccccc1)NC(=O)[C@H](Cc1c[nH]cn1)NC(=O)[C@H](C)NC(=O)[C@H](CC(C)C)NC(=O)[C@H](CCCNC(=N)N)NC(=O)[C@H](CCC(N)=O)NC(=O)[C@@H](NC(=O)[C@H](C)NC(=O)[C@@H]1CSSC[C@H](NC(=O)[C@H](CCCCN)NC(=O)CC[C@H](NC(=O)CCCCCCCCCCCCCCCCCCC(=O)O)C(=O)O)C(=O)N[C@@H](CC(N)=O)C(=O)N[C@@H]([C@@H](C)O)C(=O)N[C@@H](C)C(=O)N[C@@H]([C@@H](C)O)C(=O)N1)[C@@H](C)O)C(=O)N1CCC[C@H]1C(=O)N[C@@H](CO)C(=O)N[C@@H](CO)C(=O)N[C@H](C(=O)N[C@@H](CC(N)=O)C(=O)N[C@H](C(=O)NCC(=O)N[C@@H](CO)C(=O)N[C@@H](CCC(=O)O)C(=O)N[C@H](C(=O)N[C@@H](Cc1ccc(O)cc1)C(N)=O)[C@@H](C)O)C(C)C)[C@@H](C)O
notes: also called compound 30
For B1, the concentration for half-maximal inhibition (IC50) stood at 21.6 nM.

B2: N^ε1-[2-[2-[2-[[(4S)-4-carboxy-4-(19-carboxynonadecanoylamino)butanoyl]amino]ethoxy]ethoxy]acetyl]-[Arg17,Pro21,Pro27,Glu35]-h-amylin (peptide)
peptide: K([AEEA-γGlu-C20 diacid])CNTATCATQRLANFLRHSSPNFGAIPSSTNVGSETY-NH2
modifications: disulfide 2-7; N-terminus assumed
SMILES: CC[C@H](C)[C@H](NC(=O)[C@H](C)NC(=O)CNC(=O)[C@H](Cc1ccccc1)NC(=O)[C@H](CC(N)=O)NC(=O)[C@@H]1CCCN1C(=O)[C@H](CO)NC(=O)[C@H](CO)NC(=O)[C@H](Cc1c[nH]cn1)NC(=O)[C@H](CCCNC(=N)N)NC(=O)[C@H](CC(C)C)NC(=O)[C@H](Cc1ccccc1)NC(=O)[C@H](CC(N)=O)NC(=O)[C@H](C)NC(=O)[C@H](CC(C)C)NC(=O)[C@H](CCCNC(=N)N)NC(=O)[C@H](CCC(N)=O)NC(=O)[C@@H](NC(=O)[C@H](C)NC(=O)[C@@H]1CSSC[C@H](NC(=O)[C@@H](N)CCCCNC(=O)COCCOCCNC(=O)CC[C@H](NC(=O)CCCCCCCCCCCCCCCCCCC(=O)O)C(=O)O)C(=O)N[C@@H](CC(N)=O)C(=O)N[C@@H]([C@@H](C)O)C(=O)N[C@@H](C)C(=O)N[C@@H]([C@@H](C)O)C(=O)N1)[C@@H](C)O)C(=O)N1CCC[C@H]1C(=O)N[C@@H](CO)C(=O)N[C@@H](CO)C(=O)N[C@H](C(=O)N[C@@H](CC(N)=O)C(=O)N[C@H](C(=O)NCC(=O)N[C@@H](CO)C(=O)N[C@@H](CCC(=O)O)C(=O)N[C@H](C(=O)N[C@@H](Cc1ccc(O)cc1)C(N)=O)[C@@H](C)O)C(C)C)[C@@H](C)O
notes: also called compound 26
For the molecule B2, the 50% inhibitory concentration (IC50) amounted to 25.3 nM.

B3: N^ε1-[2-[2-[2-[[(4S)-4-carboxy-4-(19-carboxynonadecanoylamino)butanoyl]amino]ethoxy]ethoxy]acetyl]-[Ala14,Arg17,Pro21,Pro27,Pro31]-h-amylin (peptide)
peptide: K([AEEA-γGlu-C20 diacid])CNTATCATQRLAAFLRHSSPNFGAIPSSTPVGSNTY-NH2
modifications: disulfide 2-7; N-terminus assumed
SMILES: CC[C@H](C)[C@H](NC(=O)[C@H](C)NC(=O)CNC(=O)[C@H](Cc1ccccc1)NC(=O)[C@H](CC(N)=O)NC(=O)[C@@H]1CCCN1C(=O)[C@H](CO)NC(=O)[C@H](CO)NC(=O)[C@H](Cc1c[nH]cn1)NC(=O)[C@H](CCCNC(=N)N)NC(=O)[C@H](CC(C)C)NC(=O)[C@H](Cc1ccccc1)NC(=O)[C@H](C)NC(=O)[C@H](C)NC(=O)[C@H](CC(C)C)NC(=O)[C@H](CCCNC(=N)N)NC(=O)[C@H](CCC(N)=O)NC(=O)[C@@H](NC(=O)[C@H](C)NC(=O)[C@@H]1CSSC[C@H](NC(=O)[C@@H](N)CCCCNC(=O)COCCOCCNC(=O)CC[C@H](NC(=O)CCCCCCCCCCCCCCCCCCC(=O)O)C(=O)O)C(=O)N[C@@H](CC(N)=O)C(=O)N[C@@H]([C@@H](C)O)C(=O)N[C@@H](C)C(=O)N[C@@H]([C@@H](C)O)C(=O)N1)[C@@H](C)O)C(=O)N1CCC[C@H]1C(=O)N[C@@H](CO)C(=O)N[C@@H](CO)C(=O)N[C@H](C(=O)N1CCC[C@H]1C(=O)N[C@H](C(=O)NCC(=O)N[C@@H](CO)C(=O)N[C@@H](CC(N)=O)C(=O)N[C@H](C(=O)N[C@@H](Cc1ccc(O)cc1)C(N)=O)[C@@H](C)O)C(C)C)[C@@H](C)O
notes: also called compound 72
Take B3: the IC50 amounted to 42.4 nM.

B4: N^ε1-[2-[2-[2-[[(4S)-4-carboxy-4-(19-carboxynonadecanoylamino)butanoyl]amino]ethoxy]ethoxy]acetyl]-[Arg14,Arg17,Pro21,Pro27,Pro31]-h-amylin (peptide)
peptide: K([AEEA-γGlu-C20 diacid])CNTATCATQRLARFLRHSSPNFGAIPSSTPVGSNTY-NH2
modifications: disulfide 2-7; N-terminus assumed
SMILES: CC[C@H](C)[C@H](NC(=O)[C@H](C)NC(=O)CNC(=O)[C@H](Cc1ccccc1)NC(=O)[C@H](CC(N)=O)NC(=O)[C@@H]1CCCN1C(=O)[C@H](CO)NC(=O)[C@H](CO)NC(=O)[C@H](Cc1c[nH]cn1)NC(=O)[C@H](CCCNC(=N)N)NC(=O)[C@H](CC(C)C)NC(=O)[C@H](Cc1ccccc1)NC(=O)[C@H](CCCNC(=N)N)NC(=O)[C@H](C)NC(=O)[C@H](CC(C)C)NC(=O)[C@H](CCCNC(=N)N)NC(=O)[C@H](CCC(N)=O)NC(=O)[C@@H](NC(=O)[C@H](C)NC(=O)[C@@H]1CSSC[C@H](NC(=O)[C@@H](N)CCCCNC(=O)COCCOCCNC(=O)CC[C@H](NC(=O)CCCCCCCCCCCCCCCCCCC(=O)O)C(=O)O)C(=O)N[C@@H](CC(N)=O)C(=O)N[C@@H]([C@@H](C)O)C(=O)N[C@@H](C)C(=O)N[C@@H]([C@@H](C)O)C(=O)N1)[C@@H](C)O)C(=O)N1CCC[C@H]1C(=O)N[C@@H](CO)C(=O)N[C@@H](CO)C(=O)N[C@H](C(=O)N1CCC[C@H]1C(=O)N[C@H](C(=O)NCC(=O)N[C@@H](CO)C(=O)N[C@@H](CC(N)=O)C(=O)N[C@H](C(=O)N[C@@H](Cc1ccc(O)cc1)C(N)=O)[C@@H](C)O)C(C)C)[C@@H](C)O
notes: also called compound 64
With B4, the concentration for half-maximal inhibition (IC50) was 56 nM.

B5: N^ε1-[2-[2-[2-[[2-[2-[2-[[(4S)-4-carboxy-4-(19-carboxynonadecanoylamino)butanoyl]amino]ethoxy]ethoxy]acetyl]amino]ethoxy]ethoxy]acetyl]-[Arg17,Pro21,Pro27,Glu35 … (peptide)
peptide: K([AEEA-AEEA-γGlu-C20 diacid])CNTATCATQRLANFLRHSSPNFGAIPSSTNVGSETY-NH2
modifications: disulfide 2-7; N-terminus assumed
SMILES: CC[C@H](C)[C@H](NC(=O)[C@H](C)NC(=O)CNC(=O)[C@H](Cc1ccccc1)NC(=O)[C@H](CC(N)=O)NC(=O)[C@@H]1CCCN1C(=O)[C@H](CO)NC(=O)[C@H](CO)NC(=O)[C@H](Cc1c[nH]cn1)NC(=O)[C@H](CCCNC(=N)N)NC(=O)[C@H](CC(C)C)NC(=O)[C@H](Cc1ccccc1)NC(=O)[C@H](CC(N)=O)NC(=O)[C@H](C)NC(=O)[C@H](CC(C)C)NC(=O)[C@H](CCCNC(=N)N)NC(=O)[C@H](CCC(N)=O)NC(=O)[C@@H](NC(=O)[C@H](C)NC(=O)[C@@H]1CSSC[C@H](NC(=O)[C@@H](N)CCCCNC(=O)COCCOCCNC(=O)COCCOCCNC(=O)CC[C@H](NC(=O)CCCCCCCCCCCCCCCCCCC(=O)O)C(=O)O)C(=O)N[C@@H](CC(N)=O)C(=O)N[C@@H]([C@@H](C)O)C(=O)N[C@@H](C)C(=O)N[C@@H]([C@@H](C)O)C(=O)N1)[C@@H](C)O)C(=O)N1CCC[C@H]1C(=O)N[C@@H](CO)C(=O)N[C@@H](CO)C(=O)N[C@H](C(=O)N[C@@H](CC(N)=O)C(=O)N[C@H](C(=O)NCC(=O)N[C@@H](CO)C(=O)N[C@@H](CCC(=O)O)C(=O)N[C@H](C(=O)N[C@@H](Cc1ccc(O)cc1)C(N)=O)[C@@H](C)O)C(C)C)[C@@H](C)O
notes: also called compound 25
On to B5, for which the IC50 was determined as 43.4 nM.

B6: N^ε1-[2-[2-[2-[[(4S)-4-carboxy-4-(19-carboxynonadecanoylamino)butanoyl]amino]ethoxy]ethoxy]acetyl]-[Arg17,Pro21,Pro27,Pro28,Pro31]-h-amylin (peptide)
peptide: K([AEEA-γGlu-C20 diacid])CNTATCATQRLANFLRHSSPNFGAIPPSTPVGSNTY-NH2
modifications: disulfide 2-7
notes: also called compound 53
With B6, the half-maximal inhibitory concentration (IC50) is 5.38 nM.
